Results as given in article PMC6824469.
Numbering of substitutions follows the chain as printed.

B1: substrate-1 (RNA-1/Cy5 DNA) (DNA:RNA)
RNA: GGCACCAACACAAAACACAUCUACACUCAACAAU
DNA: GTAGATGTGTTTTGTGTTGGTGCC
B2: substrate-4 (RNA-4/Cy5 DNA) (DNA:RNA)
DNA 1: GGCACCAACACAAAACACATCTACACUCAACAAUCACUUU
DNA 2: GTAGATGTGTTTTGTGTTGGTGCC
modifications: DNA at nt 17-24 of strand 1 (proximal end of duplex)
B3: substrate-5 (RNA-5/Cy5 DNA) (DNA:RNA)
RNA: B2 DNA 1 with T20U, T22U
DNA: GTAGATGTGTTTTGTGTTGGTGCC
modifications: DNA at nt 9-16 of strand 1 (middle of duplex)

Molecular target: Prp43p (rPrp43p);Ntr1p (1-120) (Saccharomyces cerevisiae (budding …, UniProt P53131;Q06411 1-767;1-120, |))
Sequence (P53131 whole entry, chain 1 of 2): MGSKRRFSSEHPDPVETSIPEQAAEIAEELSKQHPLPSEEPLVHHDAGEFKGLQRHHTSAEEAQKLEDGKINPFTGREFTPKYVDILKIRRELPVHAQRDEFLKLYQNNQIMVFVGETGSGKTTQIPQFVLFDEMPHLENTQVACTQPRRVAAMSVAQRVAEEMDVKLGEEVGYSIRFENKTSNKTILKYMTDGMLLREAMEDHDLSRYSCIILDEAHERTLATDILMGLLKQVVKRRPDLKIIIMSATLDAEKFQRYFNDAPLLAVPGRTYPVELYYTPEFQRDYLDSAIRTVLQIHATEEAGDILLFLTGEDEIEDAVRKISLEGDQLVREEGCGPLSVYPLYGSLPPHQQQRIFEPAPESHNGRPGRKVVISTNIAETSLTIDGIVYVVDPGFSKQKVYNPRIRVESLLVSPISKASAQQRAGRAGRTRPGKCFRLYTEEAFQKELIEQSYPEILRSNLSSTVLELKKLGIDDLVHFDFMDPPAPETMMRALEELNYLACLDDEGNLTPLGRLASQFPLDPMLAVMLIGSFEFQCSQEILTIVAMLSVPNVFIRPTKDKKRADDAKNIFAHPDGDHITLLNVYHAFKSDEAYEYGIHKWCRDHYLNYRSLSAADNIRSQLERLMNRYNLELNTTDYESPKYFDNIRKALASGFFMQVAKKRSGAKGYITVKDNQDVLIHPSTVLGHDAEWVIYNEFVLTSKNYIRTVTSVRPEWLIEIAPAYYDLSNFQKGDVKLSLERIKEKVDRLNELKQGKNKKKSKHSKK
Sequence (Q06411 1-120, chain 2 of 2): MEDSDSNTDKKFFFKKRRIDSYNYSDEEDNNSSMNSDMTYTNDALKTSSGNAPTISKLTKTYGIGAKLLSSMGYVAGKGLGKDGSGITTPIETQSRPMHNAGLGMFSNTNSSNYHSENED
Assay: EMSA

Binder	binding result
B1	binds
B2	binds
B3	binds
